Test results as given in patent EP1841452B1.

Biological target: mouse TNFR1 on L929 cells (mouse)
Assay: cell-based or functional assay

| Substance | ND50, modified L929 cytotoxicity assay without TNF-α (agonism) [pM] |
| --- | --- |
| anti-TNFR1 antibody AF-425-PB (R&D Systems) | 100 |
| anti-TNFR1 antibody MAB430 (R&D Systems) | 10000 |
